Experimental data reported in patent US20030166587.

Test system: IKK-phosphorylated IκBα in the IκBα/NF-κB complex
Sequence (chain, as listed by the source): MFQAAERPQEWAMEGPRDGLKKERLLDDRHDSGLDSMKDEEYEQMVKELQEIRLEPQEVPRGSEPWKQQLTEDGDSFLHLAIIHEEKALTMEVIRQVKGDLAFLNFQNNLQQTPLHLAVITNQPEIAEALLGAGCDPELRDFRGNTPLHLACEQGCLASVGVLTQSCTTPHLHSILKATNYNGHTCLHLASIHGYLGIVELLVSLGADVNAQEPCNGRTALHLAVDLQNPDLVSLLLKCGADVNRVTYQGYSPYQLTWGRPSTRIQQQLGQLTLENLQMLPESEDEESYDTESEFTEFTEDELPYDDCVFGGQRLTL

Drosophila Slimb protein, FLAG-tagged
in vitro ubiquitination of pIκBα in the presence of E1 and E2 (UBC5C), efficiency against human and mouse β-TrCP (fold less efficient): > 10
